Results published in patent publication US11110182B2, “Multifunctional RNA nanoparticles and methods for treating cancer and therapeutic resistant cancer” (University of Cincinnati, priority 2016, dated 2021).

B1: pRNA-HER2apt-siMED1: 3-WJ pRNA nanoparticle bearing a HER2-targeting RNA aptamer and two different MED1 siRNAs; strands p1 SEQ ID NO: 3, p2 SEQ ID NO: 4 (nucleic acid)
chain 1: GGACAGUGAAAGUGAGUCAAAGGAUCAAUCAUGGCCAAAGAUGUUACUUUGAGAGCCUU
chain 2: GGCUCUCAAAGUAACAUCUAAGGCCAUGUGUAUGUGGGGGGAGGACGAUGCGGUCUGCUGUGCUUGAUAUGCCCCAGACGACUCGCCCCCCACAUACUUUGUUGAUCCAAUGACUCACUUUCACUGUCCUU
modifications: 2'-F modification; third strand may lack entry; pRNA-HER2apt-siMED1, p1; pRNA-HER2apt-siMED1, p2
B2: pRNA-HER2apt^mut-siMED1: control pRNA nanoparticle with mutant HER2 aptamer; strands p1 SEQ ID NO: 5, p2 SEQ ID NO: 6 (nucleic acid)
chain 1: B1 chain 1
chain 2: GGCUCUCAAAGUAACAUCUAAGGCCAUGUGUAUGUGGGAUGAGGAGUAUGAAGAUACCUGUACUUGAUAUGCCCCAGACGACAUUCCCCCCACAUACUUUGUUGAUCCAAUGACUCACUUUCACUGUCCUU
modifications: pRNA-HER2apt(mut)-siMED1, p1; pRNA-HER2apt(mut)-siMED1, p2

Tested on: MED1 mRNA
Experiment: MED1 mRNA level by real-time PCR in BT474 cells
Type: cell-based, human
Details: BT474, 10 μg/mL, 48 h, direct incubation
Protocol: FIG. 3A) BT474 cells were incubated with 10 μg/mL control and pRNA-HER2apt-siMED1 nanoparticles for 48 h, and MED1 mRNA level was determined by real-time PCR. FIG. 3B) BT474 cells were incubated directly with (as indicated by -) or transfected with indicated pRNAs using lipofectamine 2000. At 48 h post treatment, MED1 protein levels were determined by western blotting. FIG. 3C) BT474 cells were treated with 10 μg/mL pRNA nanoparticles for 48 h and assayed for cell viability by MTT assay. FIG. 3D) Cells were treated as above and seeded for migration, and FIG. 3E) invasion transwell assays. Scale bar: 50 μm. FIG. 3F) After pRNA treatment for 48 h, the mRNA levels of ERα target genes TFF-1, FIG. 3G) c-Myc, and FIG. 3H) cyclin D1 in BT474 cells were determined by real-time PCR.
Cell culture. […] The hydrodynamic diameter and Tm value of pRNA nanoparticles were determined using dynamic light scattering and TGGE assay, respectively, as previously described.^54 The AFM imaging of the pRNA nanoparticles was performed at the University of Nebraska Medical Center imaging facility as previously reported.^55 Briefly, the pRNA nanoparticles (5 μL) were deposited on APS modified mica ^56 for a total of 2 min of incubation time. […] After washing three times with PBS, the cellular uptake of pRNAs was determined using a BD LSRFortessa™ flow cytometer. • Real-time PCR. […]

| Molecule | depletion of MED1 mRNA |
| --- | --- |
| B1 | ~70% |
| B2 | not |
